Common to all, as to assay type: biochemical
Assay [1] in a line: Rate of benzoic acid formation from benzoic anhydride by enzymes with esterase activity (HPLC). As to conditions: 50 μM benzoic anhydride, -10 deg. C., pH 7, 5 mins, 60% glycerol/water. The protocol: Standard reaction conditions for the rate determinations in Table 1 are as follows: 60% glycerol/water (w/w), 120 ppm hardness (2:1 Ca:Mg), 10 mM Triethanolamine adjusted to pH 7 with HCl, and […] benzoic anhydride. All incubations were at -10 deg. centigrade for 5 mins. Benzoic acid produced was measured by HPLC via an internal standard (acenaphthylene).
Various enzymes with esterase activity (lipases, esterases, proteases) were tested against benzoic anhydride to determine the rate of formation of acid. As a control, the effect on benzoic anhydride when no esterase was present (i.e., heat killed lipolase) was also measured.

The nature of assay [2]: Enzymatic hydrolysis of benzoic anhydride at pH 5.00 and 10.0 (HPLC). As to conditions: 0.5 mM benzoic anhydride, 50% acetonitrile/water, room temperature, background hydrolysis subtracted. The protocol: A 50% acetronitrile/water system was used in the presence of 120 ppm water hardness solution (2:1 calcium:magnesium), 0.5 mM benzoic anhydride, and 25 ppm acenaphthylene internal standard. The following buffer systems were utilized:
For pH 5.00: 10 mM sodium citrate, adjusted to pH 5.00 with 0.1 citric acid.
For pH 10.0: 10 mM triethanolamine, adjusted to pH 10.0 with 0.1M hydrochloric acid.
All reactions were run on a 10 mL scale at room temperature for a total of 5.00 min. The benzoic anhydride and internal standard were added from a stock solution which was 1.0M benzoic anhydride and […] acenaphthylene in 100% acetonitrile. A total of 5.0 μL of this stock was used (yielding a 1:2000 dilution) to make each reaction 0.5 mM benzoic anhydride and 25 ppm acenaphthylene. Benzoic acid produced was measured by HPLC (high pressure liquid chromatography) using the acenaphthylene internal standard as a reference.

A short description of assay [3]: Enzymatic hydrolysis of phthalic anhydride. As to conditions: 5.0 mM phthalic anhydride; 60.77 EU/g enzyme; room temperature, 50% acetonitrile/water. On the procedure:
The reaction was carried out at room temperature in a mixed solvent system (50% acetonitrile/water). The buffer and water hardness concentration were identical to that used for the benzoic anhydride systems.

Five molecules from patent US5308529A, “System for enhancing release of acids from anhydride precursors using esterase catalysts” (Lever Brothers Company, Division of Conopco, Inc., priority 1992, dated 1994) can be followed below.

B1: Papain: enzyme listed under Proteases in Table 1 (protein, UniProt P00784 134-345, looked up)
Papain: IPEYVDWRQKGAVTPVKNQGSCGSCWAFSAVVTIEGIIKIRTGNLNEYSEQELLDCDRRSYGCNGGYPWSALQLVAQYGIHYRNTYPYEGVQRYCRSREKGPYAAKTDGVRQVQPYNEGALLYSIANQPVSVVLEAAGKDFQLYRGGIFVGPCGNKVDHAVAAVGYGPNYILIKNSWGTGWGENGYIRIKRGTGNSYGVCGLYTSSFYPVKN
For the molecule B1, the “Rate (uMol Benzoic Acid prod./enzyme unit/min)” value in assay [1] (enzyme unit = esterase unit) is recorded as 6.2 E-3 uMol Benzoic Acid prod./enzyme.

B2: Lipolase: lipase from Humicola lanuginosa gene expressed in Aspergillus oryzae, commercially available from NOVO Industri A/S (protein, UniProt O59952 23-291, looked up)
Lipase: EVSQDLFNQFNLFAQYSAAAYCGKNNDAPAGTNITCTGNACPEVEKADATFLYSFEDSGVGDVTGFLALDNTNKLIVLSFRGSRSIENWIGNLNFDLKEINDICSGCRGHDGFTSSWRSVADTLRQKVEDAVREHPDYRVVFTGHSLGGALATVAGADLRGNGYDIDVFSYGAPRVGNRAFAEFLTVQTGGTLYRITHTNDIVPRLPPREFGYSHSSPEYWIKSGTLVPVTRNDIVKIEGIDATGGNNQPNIPDIPAHLWYFGLIGTCL
For the molecule B2, the “Reaction over 5.00 min.” value worked out at 33.30% in assay [2] (pH 5.00, 50.0 EU/g. enzyme) and 86.06% in assay [2] (pH 10.0, 15.0 EU/g. enzyme).

B3: Humicola languinosa: lipase ex Humicola lanuginosa (listed under Lipases) (protein, UniProt O59952 23-291, looked up)
Lipase: EVSQDLFNQFNLFAQYSAAAYCGKNNDAPAGTNITCTGNACPEVEKADATFLYSFEDSGVGDVTGFLALDNTNKLIVLSFRGSRSIENWIGNLNFDLKEINDICSGCRGHDGFTSSWRSVADTLRQKVEDAVREHPDYRVVFTGHSLGGALATVAGADLRGNGYDIDVFSYGAPRVGNRAFAEFLTVQTGGTLYRITHTNDIVPRLPPREFGYSHSSPEYWIKSGTLVPVTRNDIVKIEGIDATGGNNQPNIPDIPAHLWYFGLIGTCL
On to B3, for which the “Rate (uMol Benzoic Acid prod./enzyme unit/min)” value in assay [1] (enzyme unit = lipase unit) is listed as 1.08 E-1 uMol Benzoic Acid prod./enzyme.

B4: Heat Killed Lipolase: control: heat killed lipolase, i.e. no esterase present (protein, UniProt O59952 23-291, looked up)
Lipase: EVSQDLFNQFNLFAQYSAAAYCGKNNDAPAGTNITCTGNACPEVEKADATFLYSFEDSGVGDVTGFLALDNTNKLIVLSFRGSRSIENWIGNLNFDLKEINDICSGCRGHDGFTSSWRSVADTLRQKVEDAVREHPDYRVVFTGHSLGGALATVAGADLRGNGYDIDVFSYGAPRVGNRAFAEFLTVQTGGTLYRITHTNDIVPRLPPREFGYSHSSPEYWIKSGTLVPVTRNDIVKIEGIDATGGNNQPNIPDIPAHLWYFGLIGTCL
modifications: heat-inactivated
notes: control: heat killed lipolase, i.e. no esterase present
In the case of B4, in assay [1] (control, no unit assay printed), the “Rate (uMol Benzoic Acid prod./enzyme unit/min)” value is given as 0 uMol Benzoic Acid prod./enzyme.

B5: Genex 8397: protease; mutant of subtilisin BPN' with MET50→PHE, ASN76→ASP, GLY169→ALA, GLN206→CYS, ASN218→SER (protein, UniProt P00782 108-382, looked up, variant M50F N76D G169A Q206C N218S)
Subtilisin BPN': AQSVPYGVSQIKAPALHSQGYTGSNVKVAVIDSGIDSSHPDLKVAGGASFVPSETNPFQDNNSHGTHVAGTVAALDNSIGVLGVAPSASLYAVKVLGADGSGQYSWIINGIEWAIANNMDVINMSLGGPSGSAALKAAVDKAVASGVVVVAAAGNEGTSGSSSTVGYPAKYPSVIAVGAVDSSNQRASFSSVGPELDVMAPGVSICSTLPGNKYGAYSGTSMASPHVAGAAALILSKHPNWTNTQVRSSLENTTTKLGDSFYYGKGLINVQAAAQ
As for B5, the “Reaction over 5.00 min.” value amounted to 22.34% in assay [2] (pH 5.00, 60.0 EU/g. enzyme) and 63.23% in assay [2] (pH 10.0, 3.04 EU/g. enzyme). Moreover, in assay [3], the “Rate (μmol BA/EU/min)” value is listed as 3.03 × 10^-3 μmol BA/EU/min.
